In this series the test system is Escherichia coli TOP10. The series can be described thus: shrunken log2 fold change of peptide-encoding DNA abundance (4.5 h post-induction vs induction); higher = less antimicrobial activity (less host growth inhibition). As to conditions: time post-induction: 4.5 h; library: site-saturation at positions 5, 18, 19, 20.
Consider RRIRKRPPRLPRPRPRPHEPPRP, for which the “shrunken log2 fold change” value was determined as 0.0467.
Consider RRIRERPPRLPRPRPRPEVYPRP, for which the “shrunken log2 fold change” value was -0.0514.
To RRIRWRPPRLPRPRPRPHYFPRP belongs -0.087.
To RRIRTRPPRLPRPRPRPITGPRP belongs 0.00283; to RRIRCRPPRLPRPRPRPGLVPRP, 0.0569; to RRIRSRPPRLPRPRPRPLMIPRP, -0.764.
To RRIRDRPPRLPRPRPRPLVRPRP belongs 0.223; to RRIRIRPPRLPRPRPRPINQPRP, -0.345.
As for RRIRVRPPRLPRPRPRPIRVPRP, the “shrunken log2 fold change” value was -0.473.
To RRIRQRPPRLPRPRPRPKPTPRP belongs -0.0515; to RRIRIRPPRLPRPRPRPDTTPRP, -0.243.
The figure for RRIRSRPPRLPRPRPRPIFLPRP is -0.335; for RRIRDRPPRLPRPRPRPVMHPRP it is -0.112.
To RRIRQRPPRLPRPRPRPNDGPRP belongs -0.000777.
For the sequence RRIRYRPPRLPRPRPRPWILPRP, the “shrunken log2 fold change” value was -0.482.
Turning to RRIRVRPPRLPRPRPRPIPCPRP, the “shrunken log2 fold change” value was -0.0881.
To RRIRRRPPRLPRPRPRPMDNPRP belongs 0.158; to RRIRQRPPRLPRPRPRPFACPRP, -0.111; to RRIRMRPPRLPRPRPRPGPPPRP, 1.23.
For RRIRHRPPRLPRPRPRPHQIPRP, the “shrunken log2 fold change” value was 0.0658.
To RRIRTRPPRLPRPRPRPAPYPRP belongs 0.151; to RRIRNRPPRLPRPRPRPSYMPRP, -1.71.
For the sequence RRIRYRPPRLPRPRPRPECLPRP, the “shrunken log2 fold change” value is -0.171.
With RRIRLRPPRLPRPRPRPRGVPRP, the “shrunken log2 fold change” value is 0.494.
Regarding RRIRDRPPRLPRPRPRPNYNPRP, the “shrunken log2 fold change” value is -0.865.
On to RRIRTRPPRLPRPRPRPYFMPRP, for which the “shrunken log2 fold change” value is -0.836.
The figure for RRIRDRPPRLPRPRPRPGCAPRP is 0.968; for RRIRPRPPRLPRPRPRPMVWPRP it is 0.212.
The figure for RRIRNRPPRLPRPRPRPWPDPRP is 0.646; for RRIRFRPPRLPRPRPRPVITPRP it is -0.666; for RRIRPRPPRLPRPRPRPYVPPRP it is -0.0652.
The figure for RRIRYRPPRLPRPRPRPIEYPRP is -0.0912; for RRIRDRPPRLPRPRPRPLIMPRP it is -0.0616; for RRIRERPPRLPRPRPRPQAKPRP it is 0.162.
In the case of RRIRQRPPRLPRPRPRPRETPRP, the “shrunken log2 fold change” value worked out at 0.248.
To RRIRWRPPRLPRPRPRPEQYPRP belongs -0.171; to RRIRWRPPRLPRPRPRPWHLPRP, -0.00636.
To RRIRFRPPRLPRPRPRPTQPPRP belongs 0.202.
To RRIRHRPPRLPRPRPRPTEMPRP belongs 0.181; to RRIRHRPPRLPRPRPRPFMVPRP, -0.43; to RRIRFRPPRLPRPRPRPECSPRP, 0.411.
RRIRSRPPRLPRPRPRPWYEPRP: the “shrunken log2 fold change” value was -0.0183.
The figure for RRIRERPPRLPRPRPRPWYMPRP is -0.386; for RRIRGRPPRLPRPRPRPYHRPRP it is -0.203; for RRIRRRPPRLPRPRPRPLFRPRP it is 0.109.
The figure for RRIRLRPPRLPRPRPRPLECPRP is 0.184.
The figure for RRIRWRPPRLPRPRPRPDDKPRP is -0.139; for RRIRFRPPRLPRPRPRPYFKPRP it is -0.848.
On to RRIRVRPPRLPRPRPRPVLVPRP, for which the “shrunken log2 fold change” value is -0.311.
As for RRIRRRPPRLPRPRPRPKPAPRP, the “shrunken log2 fold change” value was determined as 0.347.
The figure for RRIRHRPPRLPRPRPRPLDDPRP is -0.172; for RRIRYRPPRLPRPRPRPVRAPRP it is 0.774; for RRIRNRPPRLPRPRPRPDEYPRP it is 0.00318.
To RRIRFRPPRLPRPRPRPRANPRP belongs 0.509.
To RRIRQRPPRLPRPRPRPPNPPRP belongs 0.109.
As for RRIRCRPPRLPRPRPRPQCYPRP, the “shrunken log2 fold change” value is -0.474.
To RRIRGRPPRLPRPRPRPNRWPRP belongs 0.617.
To RRIRMRPPRLPRPRPRPRIHPRP belongs 0.0221.
Turning to RRIRTRPPRLPRPRPRPLMWPRP, the “shrunken log2 fold change” value is -0.151.
To RRIRDRPPRLPRPRPRPSGMPRP belongs -0.0709; to RRIRERPPRLPRPRPRPQQKPRP, -0.157.
To RRIRYRPPRLPRPRPRPCQNPRP belongs 0.0275; to RRIRGRPPRLPRPRPRPCRGPRP, -0.0404; to RRIRERPPRLPRPRPRPWWIPRP, -0.021.
RRIRYRPPRLPRPRPRPVPHPRP: the “shrunken log2 fold change” value is -0.262.
Take RRIRPRPPRLPRPRPRPHAFPRP: the “shrunken log2 fold change” value worked out at 0.0176.
To RRIRARPPRLPRPRPRPMVAPRP belongs 0.676; to RRIRKRPPRLPRPRPRPQWMPRP, -0.307.
The figure for RRIRTRPPRLPRPRPRPEWHPRP is 0.0594; for RRIRVRPPRLPRPRPRPKAHPRP it is -0.00647.
The figure for RRIRMRPPRLPRPRPRPKEGPRP is -0.01; for RRIRARPPRLPRPRPRPRKVPRP it is 0.615.
As for RRIRKRPPRLPRPRPRPVQGPRP, the “shrunken log2 fold change” value is -0.0824.
To RRIRTRPPRLPRPRPRPLHKPRP belongs 0.0334.
Take RRIRHRPPRLPRPRPRPFHGPRP: the “shrunken log2 fold change” value is -0.121.
To RRIRTRPPRLPRPRPRPVPYPRP belongs -0.0764.
RRIRARPPRLPRPRPRPLLKPRP: the “shrunken log2 fold change” value was 0.0989.
Turning to RRIRDRPPRLPRPRPRPPGHPRP, the “shrunken log2 fold change” value was found to be 0.0994.
For RRIRQRPPRLPRPRPRPFVPPRP, the “shrunken log2 fold change” value was found to be 0.0357.
To RRIRFRPPRLPRPRPRPQLTPRP belongs -0.527; to RRIRGRPPRLPRPRPRPKQKPRP, -0.0523; to RRIRSRPPRLPRPRPRPAKQPRP, 0.134.
The figure for RRIRMRPPRLPRPRPRPGRLPRP is 0.411.
The figure for RRIRGRPPRLPRPRPRPDTNPRP is 0.199; for RRIRNRPPRLPRPRPRPSSGPRP it is -0.649; for RRIRRRPPRLPRPRPRPAKEPRP it is 0.0389.
Consider RRIRQRPPRLPRPRPRPAAYPRP, for which the “shrunken log2 fold change” value is -0.169.
To RRIRSRPPRLPRPRPRPLGRPRP belongs 0.351.
To RRIRPRPPRLPRPRPRPIMCPRP belongs -0.221.
The figure for RRIRSRPPRLPRPRPRPYVPPRP is -0.784; for RRIRARPPRLPRPRPRPMWHPRP it is 0.131.
Turning to RRIRNRPPRLPRPRPRPPPDPRP, the “shrunken log2 fold change” value was 0.794.
The figure for RRIRVRPPRLPRPRPRPGVWPRP is 1.88; for RRIRARPPRLPRPRPRPILCPRP it is 0.165.
The figure for RRIRPRPPRLPRPRPRPTVRPRP is 0.0204; for RRIRHRPPRLPRPRPRPQEYPRP it is -0.128; for RRIRNRPPRLPRPRPRPYCEPRP it is -0.469.
To RRIRARPPRLPRPRPRPAFYPRP belongs 0.117; to RRIRIRPPRLPRPRPRPRPWPRP, 0.154; to RRIRNRPPRLPRPRPRPYLMPRP, -0.287.
Turning to RRIRWRPPRLPRPRPRPHIPPRP, the “shrunken log2 fold change” value is -0.227.
The figure for RRIRCRPPRLPRPRPRPICIPRP is -0.191; for RRIRWRPPRLPRPRPRPWLMPRP it is 0.116; for RRIRYRPPRLPRPRPRPLRRPRP it is 0.17.
The figure for RRIRRRPPRLPRPRPRPDGMPRP is 0.0388.
To RRIRLRPPRLPRPRPRPAWGPRP belongs 0.444; to RRIRWRPPRLPRPRPRPDRIPRP, 0.082.
For the sequence RRIRDRPPRLPRPRPRPIMHPRP, the “shrunken log2 fold change” value was -0.0198.
In the case of RRIRQRPPRLPRPRPRPTCYPRP, the “shrunken log2 fold change” value is -0.309.
To RRIRPRPPRLPRPRPRPHTNPRP belongs 0.401; to RRIRWRPPRLPRPRPRPMLAPRP, 1; to RRIRDRPPRLPRPRPRPQNKPRP, -0.475.
To RRIRDRPPRLPRPRPRPLIPPRP belongs -0.516.
In the case of RRIRRRPPRLPRPRPRPEGHPRP, the “shrunken log2 fold change” value stood at 0.488.
To RRIRHRPPRLPRPRPRPRSPPRP belongs 0.243; to RRIRHRPPRLPRPRPRPTGRPRP, -0.089.
To RRIRARPPRLPRPRPRPTACPRP belongs 0.405; to RRIRQRPPRLPRPRPRPCNIPRP, -0.646.
The figure for RRIRSRPPRLPRPRPRPDIEPRP is 0.0454; for RRIRSRPPRLPRPRPRPGLVPRP it is 0.275; for RRIRTRPPRLPRPRPRPNHDPRP it is -0.3.
For RRIRHRPPRLPRPRPRPCRLPRP, the “shrunken log2 fold change” value came out at 0.0253.
The figure for RRIRIRPPRLPRPRPRPHEGPRP is -0.0113; for RRIRLRPPRLPRPRPRPVIRPRP it is -0.502.
To RRIRSRPPRLPRPRPRPWDDPRP belongs -0.0242.
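Also: peptides expressed intracellularly from a pBAD plasmid library in pooled LB shake-flask culture, induced with 0.3% L-arabinose, DNA abundance read by NGS, three biological replicates, DESeq2 with apeglm shrinkage.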
